Assay: soluble on expression in E. coli; label from the status in PepcDB or PDB records

Soluble on expression in E. coli, not soluble:
MGSDKIHHHHHHMDPRSEVLLRQAELFQGPLLIAGAPADDLLGQLPQAQAWTWHAGDQAMLESRFAGRSHYGVEAPEAAFDSAVLFLPKSRELAAYLLNALASRLAGRELYLVGEKRGGIEGAAKQLQAFGKPRKLDSARHCQLWQVTIDQAPQAKPLESLAERFELALEDGPLQVVSLPGVFSHGRLDRGTALLLKHLDGLPGGHMLDFGCGAGVLGATLKRRYPQSRVTLLDVDAFAVAASRLTLAANGLEGEVISGDGIDAAPTELSLILSNPPFHTGVHTNYQASENLLKKSAVHLRKGGEMRLVANSFLRYQPLIEGALGNCQVRDEADGFRIYQATRG
MGSDKIHHHHHHMDQKALSMFAHLSQTLHFGKTALAHHISPSTLSRAIQRLEDEVGGELLHRDNRTVVLTDVGKKFKIYAEQQLEQWHSFKQSLDHKQAALTGKLHIYCSVTAAYSHLPPLLERFRARHPLVEIMLTTGDAADALEQVQNQSVDFAIAAAPENLPRSVYFHHLDTIALTVIAPTMTCKVQQQLSQKVLTWSEIPIILPEHGAARKRFELWYRKKQQGKPTIYATVSGHEALVSMVALGCGVGIVPQVVVDNSPVKDRVSNLENIGDIEPFELGVCCLNQAKAQPLIKAFFSSIV
MGSDKIHHHHHHMDSKHSMISLKQKLSGLLDVIPKQSEIIYADYPLYGNVGDLFIMKGTEAFFKEHGIRVRKRWNPDNFPIGRKLDPNLIIVCQGGGNFGDLYPYYQGFREKIVQTYPNHKIVILPQSIYFQNKDNLKRTAEIFSKHANLHIMTREKASYATAQAYFTTNHIQLLPDMAHQLFPVIPTQQPSNQKLRFIRTDHEANQALQEHAEAESYDWRTVLSASDRRTIAFLQTLNVLNKKAGNPLPIAYIWEKYSDYIVQKAIRFFSRYESVETSRLHGHILSSLLQKENTVIDNSYGKNANYFHTWMEGVPSTRLIQHASKKENLPAHM
MGSDKIHHHHHHMDTFHLMKVYIAVAEEQGFSAASRRLNMSAPTVTRAVAHLEETLKVKLLNRTTRYVRMTEAGARYLEDAKRILHDVKVANEAALGINATPQGKISVTAPVLFGQQFVLPTITDYLVRYPQTQVNAVFLDRVVNLLEEGHDVGIRIGELHDSSMRAKKVGNVRLILVASPEYLAKNGIPKNCQELAQHTLIAANTGSLNPDWQFLVNKKNQTIKINPRLTVTTNQAAINAAKNGLGITRIISYQVAEELKNNKLKILLENFEYPAKPINIVHREDKFSSAKVRSFIDLLAENLQTNSALN
MGSDKIHHHHHHMDYRKIIKEIGRGKNHARDLDLDTARGLYTRMLNGDVPDLEMGSILMALRIKGEGEAEMLGFYEAMQNHTIKLTPPADRPLPVVIPSYNGARKQANLTPLLAILLHKLGFPVVVHGVSEDPTRVLTETIFELMGIIPTLHGGQAQAKLDGRQPVFIPVSALCPPLEKQLAMRWRMGVRNSAHSLAKLATPFAEDAALRLSSVSHPEYVPRVATFFSRIGGRALLMHGTEGEVYANPQRCPQISLIDSRGVQVLHERQSDTYDEPLSLPATKDPEITARWIERCLAGHEPVPQSLKTQMACCLVATGEAATLEDGLARVEQAFSE
MGSDKIHHHHHHMEAEIELKLFFPENKREALVSLLNSLPHSDAKGAIHLTNSYYDTPDLQLRRWDMGLRIRGRDGQFEQTIKTAGTVVGGVHSRPEYNIDIDQAKVNLSLFPTEIWPEGAEIGPVQDALVSLFDTDFTRMSWHIYLDESLVEVALDIGSISANGQCEPICELEFELLAGDAQALLALAERVTEQIPARLGRASKAQRGYRLAAMASPLQLDTLAFIALPKKGTPKQALVTLLETGLDRWQLLEEMLLESRQAARQLPLLGYRLRACIRLLRCTLAQFSLLDDKLLQAFDAIESQLSFVDKGLSLCELLDGDGALLSNLSEPEGLLDAVRHELAALEMPQKIDAMLNHVTYGQLQVRLVSLLMAVNAGQVYISEQQSLQAFADRLQEASWQQIVDLMPSNAELSSEDYQSFAKALDESILVGVAYGELYKHKSRDQFRAPWQDLVLGIRTLGAYHSLRQTAATQGRDIDDWLDSKEQSLLFAMEHSRRSALKVQPYWR
MGSDKIHHHHHHMEDLQRLYPIGIQTFSKIREGNFLYVDKTEYVYRMTHSASSYMFLSRPRRFGKSLLTSTLHSYFSGREELFRGLAMEKLEKEWIQYPVLHFDMSMAKHVDKDKLMNLLDFMLTEHERTLGIDAAGTDPNLRLTNLIKRAYEQTGRKVVVLIDEYDAPLLDVVHERENLGVLRDVMRNFYSPLKACDPYLRYVFLTGITKFSQLSIFSELNNIKNISMDEPYAAICGITENEILTQMKEDVDRMAVKLNITAEEVLAKLKENYDGYHFTYPSPDIYNPFSLLNAFADGKFNSYWFGSGTPTYLIKMLDKFGVEPSEIGNKLAAVEEFDAPTETMSSITPLLYQSGYVTIKDYDKELELYTLDIPNKEVRVGLMRSLLPYYVTNDTREATNMVAFISRDIR
MGSDKIHHHHHHMEEFEGEAIVEAENVVSIMLRREAAERADEILHFSYWSGEIKELDAPGYLDRWQKKCYHATCSLDEGEILLVVGPPGSGKTTFIAEAARKLSEEERVWVTSNTNIAVDNVLEKLERALRIGHPSKITAGVRRHSVEYNLLSGIRFSDYREYASKVAEAYREIARIQNDMIRKGKIVVGSTILKGMMSALKNYDFDTVIIDEASNTCISTALLALEKAEKAVVVGDPYQLPPVYEVGGHKAAKFSAYNFLINIYGKNLWLRRHYRSNAKIAEFAARHVYGFLEIDEKCRRIKIEPCKTTIPEVGDPEKPLVFIDCNGVERREGRSKVNEEEAEVVAMIAEELAECVGEENVGVITPYVKQAELIRGILSEFGVMVEVSTVHSYQGREKDVVIYSITATGNPYFASEKRLFNVALTRARKKFIAVGNSKALEGKNLLLTRFMVAAIKEGGFVRLR
MGSDKIHHHHHHMEEIKEQNNRLFLLLSIMIMEFSNAKTESDILQGLLNLVRKVVDIKEVVLVDENKRKIWGRDIDIKRFEEFIDWSIRQSNPVFVEDELGYVGIVPVVKQDRMFGSLIVLLNHQPSMEETEIFKVLSFLSAVVLENIKLYRELEETYNYVNVILNGLPEGIFVYSNGEIKFQNEKFKEENFPDEVLRKAISLSEEAISLRTQRVGEVISGEEFFSITSIPLILGSEVQALTIVENVTESKELERLKRIDRMKTEFIANISHELRTPLTAIKAYAETIYNSLGELDLSTLKEFLEVIIDQSNHLENLLNELLDFSRLERKSLQINREKVDLCDLVESAVNAIKEFASSHNVNVLFESNVPCPVEAYIDPTRIRQVLLNLLNNGVKYSKKDAPDKYVKVILDEKDGGVLIIVEDNGIGIPDHAKDRIFEQFYRVDSSLTYEVPGTGLGLAITKEIVELHGGRIWVESEVGKGSRFFVWIPKDRAGEDNRQDN
MGSDKIHHHHHHMEEIKFPTNESGLCMNEKGVPWEDLKIVQAIADSGSLAGAGRTLGISHATVFRRLGALESRLGVRLFERHRTGYVPTLAGDDLATTAARVALDIEAVERRLMGRDARLSGTLRVTTTDTLLMGMLSDELAGFQRTYPHIVLEVEVSNRTYDLSRRDADVAIRPTSAPPETLIGRQVGQIAQAVYVSRCHRETSGWVGPDPHLGYPVLERWMARQGVDAQCRYHVDSMLGMLAGVRSGMGRGVLPCYLADMADDLVRASEPLPELQTELWLLTHPDLRNTARVQALFAYLSDSLKARQASLLGTMAAS
MGSDKIHHHHHHMEENKQTLYNDELLDILPDGVIIFNISGEVIQLNRQALTELHVHSSVNAMMPLPTNILFKLLNNKEDILSVILEKIRQGEQTYSLSEHTFMQEQVDYTQFPIRGDFATIKEDGNLKKILFFFRNITVELTQEYILNTALQRTRIYPWYYDINRSEFTLDNRYFEHLGISAGENNTLTMEEYVNMIHPDDRQAMADAFIVQLSGMETFDKSVPFRLHRGDGTWEWFEGQSTYIANISGHPYRLVGICMSIQEYKDIENTLIEARKKAEESDRLKMAFLANMSHEIRTPLNAIVGFSDVIGSTYDELSEEERADFVRLISINSEHLVRLIDDVLDLSKIESNTIKFTFTDCSLRSLMIDVEKEQTMKPISEIEIRALLPNEDVYINTDATRLKQVISNFINNARKFTEKGYIHFGYAVDSVDASSVHVFVEDTGSGIPKECQKEIFDRFYKVDTFKQGTGLGLSICKTIVEHLQGDISVESEMGKGSRFIVTLPFERQTED
